# Measurements: patent US20050026827A1, “Octapeptide bombesin analogs” (Societe de Conseils de Recherches et d'Applications …, priority 1987, published 2005)
# Where two headings read alike, the source gives them in different places. Non-standard residues stand in square brackets, D forms with d. Residues, ends and D or L forms follow the SMILES beside them. *: point of attachment. X2 = CC(C)C[C@@H](CN[C@@H](CC(C)C)C(N)=O)N*; pGlu = O=C1CC[C@@H](C(=O)O)N1
# Assays:
# [1] = molecular target: 3T3 fibroblast bombesin receptors (murine (3T3 murine fibroblasts)) (UniProt P21729)
# [2] = molecular target: T1, 3T3 fibroblast bombesin receptors (3T3 GRP receptor) (Mus musculus, UniProt P21729); assay: In vitro inhibition of [125I]GRP binding to 3T3 fibroblast bombesin receptors; set-up: species or system murine; conditions: for activity in the 3T3 GRP receptor binding assay (in words): Table 1
# T1 construct: Membranes from various tissues (rat brain, rat pancreas, rat anterior pituitary, SCLC, 3T3 cells) are prepared by homogenization; endogenous in cells; host or cells: 3T3 fibroblasts (membrane preparation)
# T1 sequence (P21729 whole entry): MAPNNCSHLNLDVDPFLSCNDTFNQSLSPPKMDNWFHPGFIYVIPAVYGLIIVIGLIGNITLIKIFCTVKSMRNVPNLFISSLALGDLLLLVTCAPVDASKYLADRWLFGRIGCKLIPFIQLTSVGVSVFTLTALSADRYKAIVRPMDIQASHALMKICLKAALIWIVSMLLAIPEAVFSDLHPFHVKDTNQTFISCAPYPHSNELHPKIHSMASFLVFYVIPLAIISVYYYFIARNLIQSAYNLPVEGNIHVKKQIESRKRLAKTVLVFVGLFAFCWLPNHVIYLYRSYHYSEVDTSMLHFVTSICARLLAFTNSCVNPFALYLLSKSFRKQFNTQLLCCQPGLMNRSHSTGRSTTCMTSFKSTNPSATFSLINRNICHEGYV
# Experimental: Phase 4—In Vitro Inhibition of [^125I] Gastrin Releasing Peptide (GRP) Binding to Bombesin Receptors
# Membranes from various tissues (rat brain, rat pancreas, rat anterior pituitary, SCLC, 3T3 cells) are prepared by homogenization in 50 mM TrisHCl containing 0.1% bovine serum albumin and 0.1 mg/ml bacitracin followed by two centrifugations (39,000×g×15 min., 4° C.) with an intermediate resuspension in-fresh buffer. For assay, aliquots […] are incubated with 0.5 nM [^125I]GRP (˜2000 Ci/mmol, Amersham Corp.) and various concentrations of the test compounds in a final volume of 0.5 ml. After a 30 minute incubation at 4° C., the binding reaction is terminated by rapid filtration through Whatman GF/C filters that have been pre-soaked in 0.3% aqueous polethyleneimine to reduce the level of nonspecific binding. The filters and tubes are washed three times with 4 ml aliquots of ice-cold buffer, and the radioactivity trapped on the filters is counted by gamma-spectrometry. Specific binding is defined as the total. [^125I]GRP bound minus that bound in the presence of 1000 nM. bombesin or a related peptide.
# A number of analogs of bombesin or GRP, each containing a non-peptide bond or a statine, AHPPA, or ACHPA, β-amino acid, or γ-amino acid residue, can be synthesized and tested in one or more of the above-described Phase 1-7 assays; the results of Phase 1 and 2 tests are given in Table 1 attached hereto. […] (3T3 GRP receptor and thymidine uptake data are expressed in IC50 (nM).) Table 1 also gives results for non-peptide bond-containing analogs of one other naturally-occurring peptide, Neuromedin C, whose C-terminal seven amino acids are similar to those of bombesin and GRP. (In Table 1, “Litorin” indicates a 9 residue peptide analog or its derivative, whereas “Neuromedin C” indicates a 10 residue analog or its derivative.)
Compound,"bombesin-stimulated [3H]Thymidine uptake, IC50 [1]",also measured
"BIM-26108, N-Ac-D-Ala-His-Trp-Ala-Val-Gly-His-Leuψ[CH2NH]Leu-NH2 (GRP (19-27) analog) (peptide)",> 1000 nM,
"BIM-26095, pGlu-Gln-Trp-Ala-Val-D-Ala-His-Leuψ[CH2NH]Leu-NH2 (Litorin analog) (peptide)",1210 nM,
"CC(C)C[C@@H](CN[C@@H](CC(C)C)C(N)=O)NC(=O)[C@H](Cc1c[nH]cn1)NC(=O)CNC(=O)[C@@H](NC(=O)[C@H](C)NC(=O)[C@H](Cc1c[nH]c2ccccc12)NC(=O)[C@H](CCC(N)=O)NC(=O)[C@H](N)Cc1ccccc1)C(C)C [BIM-26113, D-Phe-Gln-Trp-Ala-Val-Gly-His-Leuψ[CH2NH]Leu-NH2]",,IC50 [2]: 5.8 nM; activity in the 3T3 GRP receptor binding assay (in words) [2]: active
"BIM-26105, D-Ala-Asn-His-Trp-Ala-Val-D-ALa-His-Leuψ[CH2CH]Leu-NH2 (Neuromedin C analog) (peptide)",107 nM,
"BIM-26107, D-Phe-His-Trp-Ala-Val-Gly-His-Leuψ[CH2NH]Leu-NH2 (Neuromedin C analog) (peptide)",154 nM,
"BIM-26106, desGly-D-Ala-His-Trp-Ala-Val-D-ALa-His-Leuψ[CH2CH]Leu-NH2 (Neuromedin C analog) (peptide)",354 nM,
"CC(C)C[C@@H](CN[C@@H](CC(C)C)C(N)=O)NC(=O)[C@H](Cc1c[nH]cn1)NC(=O)[C@@H](C)NC(=O)[C@@H](NC(=O)[C@H](C)NC(=O)[C@H](Cc1c[nH]c2ccccc12)NC(=O)[C@H](CCC(N)=O)NC(=O)[C@@H]1CCC(=O)N1)C(C)C [BIM-26095, pGlu-Gln-Trp-Ala-Val-D-Ala-His-Leuψ[CH2NH]Leu-NH2] ([pGlu]QWAV[dA]H-X2)",,"IC50 ([2]; inhibition of [125I]GRP binding, 3T3 membranes, read-out: 3T3 GRP Receptor IC50): 2620 nM"
"BIM-26113, D-Phe-Gln-Trp-Ala-Val-Gly-His-Leuψ[CH2NH]Leu-NH2 (Litorin analog) (peptide)",9 nM,
"CC(C)C[C@@H](CN[C@@H](CC(C)C)C(N)=O)NC(=O)[C@H](Cc1c[nH]cn1)NC(=O)CNC(=O)[C@@H](NC(=O)[C@H](C)NC(=O)[C@H](Cc1c[nH]c2ccccc12)NC(=O)[C@H](CCC(N)=O)NC(=O)[C@@H]1CCC(=O)N1)C(C)C [BIM-26101, pGlu-Gln-Trp-Ala-Val-Gly-His-Leuψ[CH2NH]Leu-NH2] ([pGlu]QWAVGH-X2)",,activity in the 3T3 GRP receptor binding assay (in words) [2]: most active
"BIM-26122, D-Phe-Gln-Trp-Ala-Val-Gly-His-Leu-NH2 (Litorin analog) (peptide)",28.6 nM,
